Experimental data taken from patent publication US20230173068A1 (BIO THERA SOLUTIONS, published 2023).

Assays:
[1] = molecular target: T1, FcγRIIIa (V158)-biotin (ACRO Biosystems, Cat #CDA-H82E9) (UniProt P08637 17-208, biotin (site not stated)); assay: BLI (Octet QKe), FcγRIIIa (V158)-biotin on SA biosensor, antibody as analyte
T1 construct: Bought biotinylated protein, immobilised on an SA biosensor
Description: Specific experimental method for binding to FcγRIIIa (V158) were as follows. FcγRIIIa (V158)-biotin (ACRO Biosystems, Cat #CDA-H82E9) was diluted to 1 μg/mL. An SA Biosensor (Fertebio, Cat #18-5019) was immobilize in FcγRIIIa (V158)-biotin dilution to a signal of approximately 0.6 nm. […] The cycle of regeneration and neutralization was performed 3 times. The data was processed and analyzed using Data Analysis 8.2, and the sample data was fitted after sample blank (PBS) signal subtraction to obtain an affinity constant (KD).

[2] = molecular target: T2, FcRn-biotin (ACRO Biosystems, Cat #FCM-H82W4) (UniProt P55899 24-297; P61769 21-119, biotin (site not stated)); assay: BLI (Octet QKe), FcRn-biotin on SA biosensor, antibody as analyte
T2 construct: Bought biotinylated protein, immobilised on a streptavidin (SA) biosensor; the natural receptor is a heterodimer of FCGRT and B2M
Description: The cycle of regeneration and neutralization was performed 3 times.

[3] = molecular target: T3, FcγRIIIa (F158)-biotin (ACRO Biosystems, Cat #CDA-H82E8) (UniProt P08637 17-208, biotin (site not stated)); assay: BLI (Octet QKe), FcγRIIIa (F158)-biotin on SA biosensor, antibody as analyte
T3 construct: Bought biotinylated protein, immobilised on an SA biosensor
T3 sequence (P08637 17-208 limits assumed): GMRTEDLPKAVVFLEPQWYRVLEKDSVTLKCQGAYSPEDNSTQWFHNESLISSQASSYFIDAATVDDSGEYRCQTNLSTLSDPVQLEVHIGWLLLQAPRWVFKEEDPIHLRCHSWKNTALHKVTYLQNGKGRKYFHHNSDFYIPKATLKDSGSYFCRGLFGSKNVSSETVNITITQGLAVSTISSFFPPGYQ
Description: Specific experimental method for binding to FcγRIIIa (F158) were as follows. FcγRIIIa (F158)-biotin (ACRO Biosystems, Cat #CDA-H82E8) was diluted to 1 μg/mL. An SA Biosensor (Fertebio, Cat #18-5019) was immobilize in FcγRIIIa (F158)-biotin dilution to a signal of approximately 0.6 nm.
The cycle of regeneration and neutralization was performed 3 times. The data was processed and analyzed using Data Analysis 8.2, and the sample data was fitted after sample blank (PBS) signal subtraction to obtain an affinity constant (KD).

T1 sequence (P08637 17-208 F176V): as the sequence (P08637 17-208 limits assumed) above, with F160V counted along it

Kd [1]: 20.1 to 42.2 nM
Kd [2]: 6.09 to 8.67 nM
Kd [3]: 93 to 111 nM
B1: Simponi (golimumab), commercially available (antibody, human IgG1, kappa)
heavy: not shown
light: not shown
notes: Bought product (Janssen Biologics B.V.); It differs from Antibody A by a higher NGNA glycosylation level; also called commercially available anti-TNF-α antibody; copies: 2 + 2
